Measurements: patent US20190336582A1 (published 2019)

Molecular target: T1, IL-10 receptor (IL-10R1 and IL-10R2 receptor chains) on mouse cells (mouse, UniProt Q61727 17-575; Q61190 20-349)
T1 sequence (looked up) 1: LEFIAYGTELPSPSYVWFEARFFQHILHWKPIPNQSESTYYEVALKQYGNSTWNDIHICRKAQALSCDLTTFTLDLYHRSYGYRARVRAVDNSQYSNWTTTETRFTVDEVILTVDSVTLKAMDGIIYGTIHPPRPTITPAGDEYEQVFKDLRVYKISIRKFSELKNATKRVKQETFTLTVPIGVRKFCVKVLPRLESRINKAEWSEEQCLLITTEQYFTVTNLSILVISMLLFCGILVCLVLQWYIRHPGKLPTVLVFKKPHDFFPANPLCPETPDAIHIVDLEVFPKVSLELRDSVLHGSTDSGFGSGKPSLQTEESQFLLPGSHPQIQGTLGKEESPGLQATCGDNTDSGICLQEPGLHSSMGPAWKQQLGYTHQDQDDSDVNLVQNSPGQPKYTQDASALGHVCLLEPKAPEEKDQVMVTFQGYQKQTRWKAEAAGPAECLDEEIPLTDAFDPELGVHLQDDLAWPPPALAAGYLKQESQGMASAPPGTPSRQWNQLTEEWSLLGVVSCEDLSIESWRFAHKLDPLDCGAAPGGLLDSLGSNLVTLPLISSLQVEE
T1 sequence (looked up) 2: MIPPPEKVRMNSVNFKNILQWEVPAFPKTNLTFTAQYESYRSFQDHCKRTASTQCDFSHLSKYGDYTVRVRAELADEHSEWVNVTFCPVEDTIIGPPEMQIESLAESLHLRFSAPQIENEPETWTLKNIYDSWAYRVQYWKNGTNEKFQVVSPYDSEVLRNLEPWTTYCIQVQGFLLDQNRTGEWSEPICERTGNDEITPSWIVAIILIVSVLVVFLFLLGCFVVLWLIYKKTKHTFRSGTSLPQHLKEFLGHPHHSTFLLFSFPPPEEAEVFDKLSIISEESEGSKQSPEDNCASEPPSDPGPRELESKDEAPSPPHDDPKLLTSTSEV
Test: cell-based or functional assay

B1: Human wild-type IL-10 (wtIL-10) (ligand)
chain: SPGQGTQSENSCTHFPGNLPNMLRDLRDAFSRVKTFFQMKDQLDNLLLKESLLEDFKGYLGCQALSEMIQFYLEEVMPQAENQDPDIKAHVNSLGENLKTLRLRLRRCHRFLPCENKSKAVEQVKNAFNKLQEKGIYKAMSEFDIFINYIEAYMTMKIRN
EC50, proliferation of mouse mast cell line MC/9: 5 pM | IC50, inhibition of TNFα production in LPS-stimulated C57BL/6 mouse PBMCs (PBMC + LPS): 0.45 pM
